Experimental findings from patent publication US20180170992A1 are described below.

The target of test [1] is recombinant human IL13Rα2hFc chimera (R&D Systems) (human) (UniProt Q14627). Description: SPR, Biacore 3000; mAb immobilised, rhIL13Rα2 in the flow; 1:1 model.
For test [2], the target named is Pngase F-treated rhIL13Rα2hFc (human) (UniProt Q14627). Description: plate-bound ELISA on Pngase F-treated rhIL13Rα2hFc.
For test [3], the target named is IL13Rα2 expressed on the surface of human glioma cells (A172, N10, U251, U87, U118, U373, GBM12, GBM43) and in GBM tissue (human) (UniProt Q14627). Description: flow cytometry on N10 glioma cells pre-incubated with 10x excess rhIL13 [left table].
Test [4] shares this target. Description: flow cytometry on N10 glioma cells, isotype control [left table].

On to “mAb to IL13Rα2 (clone 83807), R&D Systems (antibody)”, for which, in test [1], the Kd worked out at 104 nM, the koff came to 0.00231 s⁻¹ and the kon is 22300 M⁻¹ s⁻¹. The substance further returned a percent decrease of binding against untreated protein in test [2] of 80%.

As for control mouse IgG (antibody), the % positive cells was 0.9% in test [3] and 1.9% in test [4].

For “monoclonal antibody to IL13Rα2 (clone B-D13), Santa Cruz Biotechnology”, in test [1], the Kd was found to be 46.1 nM, the koff was found to be 0.00499 s⁻¹ and the kon was 108000 M⁻¹ s⁻¹.
